Experimental data from patent publication US20180215825A1 (BEIGENE, published 2018).
Where a chain is given by its changes, count along the chain named. Each block holds one binder with its values, some of them ahead of it.

Tests used:
[1] = target: T1, human C1q (human, UniProt P02745 23-245; P02746 28-253; P02747 29-245); assay: ELISA: antibody coated on the plate at the x-axis concentration, human C1q added (2 µg/mL), bound C1q detected with an anti-C1q mAb
T1 construct: Bought (Cat. No. A400, Quidel); also called complement component C1q
Protocol: The ELISA-based C1q binding assay was done by conventional ELISA method with minor modification. […] After blocking and washing, the wells were incubated with 2 μg/mL of human C1q (Cat. No. A400, Quidel, San Diego, USA) at room temperature for 2 hours.

[2] = target: T2, human FcγRI expressed on HEK293 cells (human, UniProt P12314 16-374); assay: FACS, monomeric mAb on FcγR-expressing HEK293 cells
T2 construct: whole, on cells; Co-expressed with FcRγ subunit
Protocol: (§1) Bindings of humanized anti-PD-L1 in various IgG1 formats (wt, IgG1mc, IgG1mf, SEQ. NO. 27-29) to FcγRs were also determined by flow cytometry. In brief, a series of stable HEK293 transfectants expressing human FcγRs were established. These stable cell lines expressed FcγRI, FcγRIIAH131, FcγRIIAR131, FcγRIIB, FcγRIIIAF158 or FcγRIIIAV158, respectively. Multi-subunit FcγRs (i.e., FcγRI and FcγRIIIA) were co-expressed with FcRγ subunit.

[3] = target: T3, human FcγRIIAR131 expressed on HEK293 cells (human, UniProt P12318 34-317); assay: as above
T3 construct: whole, on cells
T3 sequence (looked up): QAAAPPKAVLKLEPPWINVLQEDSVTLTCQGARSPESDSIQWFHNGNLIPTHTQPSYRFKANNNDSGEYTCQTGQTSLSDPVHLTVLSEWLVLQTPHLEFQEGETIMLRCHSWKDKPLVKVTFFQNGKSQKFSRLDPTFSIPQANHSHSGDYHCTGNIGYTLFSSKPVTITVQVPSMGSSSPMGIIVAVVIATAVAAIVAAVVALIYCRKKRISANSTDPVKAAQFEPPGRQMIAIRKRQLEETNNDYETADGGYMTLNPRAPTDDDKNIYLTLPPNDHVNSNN
Protocol: as §1

[4] = target: T4, human FcγRIIIAV158 expressed on cells (human, UniProt P08637 17-254); assay: as above
T4 construct: whole, on cells; Co-expressed with FcRγ subunit; on HEK293 cells in the FACS assays, on NK92MI/CD16V cells in the ADCC assay; also called CD16 (V158 allele)
Protocol: as §1

[5] = target: T5, human FcγRIIIAF158 expressed on HEK293 cells (human, UniProt P08637 17-254); assay: as above
T5 construct: whole, on cells; Co-expressed with FcRγ subunit
Protocol: as §1

[6] = target: T6, human FcγRIIAH131 expressed on HEK293 cells (human, UniProt P12318 34-317); assay: as above
T6 construct: whole, on cells
T6 sequence (looked up): T3 sequence (looked up) with R134H
Protocol: as §1

[7] = target: T7, human FcγRIIB expressed on HEK293 cells (human, UniProt P31994 43-310); assay: as above
T7 construct: whole, on cells
T7 sequence (looked up): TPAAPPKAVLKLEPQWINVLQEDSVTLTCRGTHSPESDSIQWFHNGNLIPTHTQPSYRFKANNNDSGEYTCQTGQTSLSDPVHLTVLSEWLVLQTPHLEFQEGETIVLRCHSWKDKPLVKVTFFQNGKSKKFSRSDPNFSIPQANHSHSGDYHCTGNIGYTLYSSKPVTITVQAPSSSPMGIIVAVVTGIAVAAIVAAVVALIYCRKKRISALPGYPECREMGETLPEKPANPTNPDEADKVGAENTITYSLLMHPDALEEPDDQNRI
Protocol: as §1

[8] = target: T8, mouse PD-L1/His (mouse (Mus musculus), UniProt Q9EP73 19-239); assay: ELISA on coated mouse PD-L1/His, anti-human Fc-HRP [C]
T8 construct: extracellular domain; Said to be expressed and purified in a similar way to the human PD-L1/His; also called murine PD-L1/His; murine PD-L1; not shown: His tag
Protocol: (§2) The monkey PD-L1/His and murine PD-L1/His were expressed and purified in a similar way to the human PD-L1/His as described earlier. […] The synthesized full length mAb was named as Y1-IgG1mc. The ELISA assay was performed essentially in the same way as described in the previous section. Briefly, 200 ng of PD-L1 protein was coated on each well of Nunc MaxiSorp ELISA plate (Cat. No. 442404, Nunc, Thermo Fisher). After washing and blocking, indicated concentrations of anti-PD-L1 mAbs were added and incubated at room temperature for 1 hour. After washing, the bound anti-PD-L1 mAbs were detected using a HRP-conjugated goat anti-human Fc antibody (Cat. No. A0170, Sigma).

[9] = target: T9, human PD-L1, full length, expressed on cells (human, UniProt Q9NZQ7 19-290); assay: FACS competition with CD80/Fc on HEK293/PD-L1 cells
T9 construct: also called HEK293/PD-L1 cells; HEK293/OS8/PD-L1 cells

[10] = target: T10, cynomolgus monkey PD-L1/His (cynomolgus monkey (Macaca fascicularis), UniProt G7PSE7 19-238); assay: ELISA on coated cynomolgus monkey PD-L1/His, anti-human Fc-HRP [B]
T10 construct: extracellular domain; Said to be expressed and purified in a similar way to the human PD-L1/His (PD-L1-ECD/His); not shown: His tag
Protocol: as §2

[11] = target: T9, human PD-L1, full length, expressed on …; assay: FACS on HEK293/PD-L1 cells
Protocol: FACS binding analysis was performed as described in previous sections.

T9 sequence (Q9NZQ7 19-290 limits assumed): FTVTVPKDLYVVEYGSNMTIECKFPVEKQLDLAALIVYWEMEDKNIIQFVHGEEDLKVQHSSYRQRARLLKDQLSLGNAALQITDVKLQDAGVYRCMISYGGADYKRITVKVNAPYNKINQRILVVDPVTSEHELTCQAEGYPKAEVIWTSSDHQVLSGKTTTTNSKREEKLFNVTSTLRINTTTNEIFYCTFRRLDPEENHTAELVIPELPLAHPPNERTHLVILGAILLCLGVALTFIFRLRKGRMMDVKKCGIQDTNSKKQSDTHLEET
T10 sequence (G7PSE7 entry or part of it): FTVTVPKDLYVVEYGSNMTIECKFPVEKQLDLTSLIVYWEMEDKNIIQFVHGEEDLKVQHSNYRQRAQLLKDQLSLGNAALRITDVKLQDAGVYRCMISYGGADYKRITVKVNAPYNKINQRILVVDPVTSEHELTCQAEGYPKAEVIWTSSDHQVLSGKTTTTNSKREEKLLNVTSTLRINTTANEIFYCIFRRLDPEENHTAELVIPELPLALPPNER
T2 sequence (P12314 16-374): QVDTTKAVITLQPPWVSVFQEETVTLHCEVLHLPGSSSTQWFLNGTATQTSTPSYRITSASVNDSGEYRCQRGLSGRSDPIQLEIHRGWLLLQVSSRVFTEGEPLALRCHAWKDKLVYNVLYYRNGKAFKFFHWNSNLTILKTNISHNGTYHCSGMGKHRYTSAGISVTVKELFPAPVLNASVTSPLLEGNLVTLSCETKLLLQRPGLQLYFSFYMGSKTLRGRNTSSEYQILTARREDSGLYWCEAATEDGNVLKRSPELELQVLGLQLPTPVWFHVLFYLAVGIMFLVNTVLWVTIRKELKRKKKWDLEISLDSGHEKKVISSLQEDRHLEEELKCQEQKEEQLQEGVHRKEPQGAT
T1 sequence (P02745 23-245, chain 1 of 3): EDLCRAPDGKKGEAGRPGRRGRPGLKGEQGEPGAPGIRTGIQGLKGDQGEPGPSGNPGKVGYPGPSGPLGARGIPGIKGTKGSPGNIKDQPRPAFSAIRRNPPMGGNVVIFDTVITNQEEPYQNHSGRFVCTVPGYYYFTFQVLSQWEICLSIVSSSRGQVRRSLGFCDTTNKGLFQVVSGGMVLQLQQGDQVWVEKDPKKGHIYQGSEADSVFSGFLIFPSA
T1 sequence (P02746 28-253, chain 2 of 3): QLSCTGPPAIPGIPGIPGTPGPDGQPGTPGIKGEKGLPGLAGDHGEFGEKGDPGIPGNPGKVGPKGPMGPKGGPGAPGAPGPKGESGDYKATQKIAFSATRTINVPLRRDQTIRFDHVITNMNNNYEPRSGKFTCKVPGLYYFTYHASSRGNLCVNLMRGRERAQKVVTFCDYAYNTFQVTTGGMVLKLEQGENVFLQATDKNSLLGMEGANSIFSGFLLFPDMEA
T1 sequence (P02747 29-245, chain 3 of 3): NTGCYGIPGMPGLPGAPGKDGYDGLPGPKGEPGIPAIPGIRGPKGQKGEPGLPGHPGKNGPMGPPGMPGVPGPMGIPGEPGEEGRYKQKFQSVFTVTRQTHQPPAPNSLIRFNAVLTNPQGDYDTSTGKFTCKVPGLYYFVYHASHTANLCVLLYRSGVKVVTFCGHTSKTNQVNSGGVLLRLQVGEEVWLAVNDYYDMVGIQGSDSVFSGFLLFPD
T8 sequence (Q9EP73 19-239): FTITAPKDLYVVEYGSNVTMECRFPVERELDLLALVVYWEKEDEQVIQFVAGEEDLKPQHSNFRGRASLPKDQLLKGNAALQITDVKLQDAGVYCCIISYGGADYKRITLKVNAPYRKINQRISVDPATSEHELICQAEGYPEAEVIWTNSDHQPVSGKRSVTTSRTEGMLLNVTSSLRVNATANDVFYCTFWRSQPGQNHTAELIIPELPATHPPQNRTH
T4 sequence (P08637 17-254 F176V limits assumed): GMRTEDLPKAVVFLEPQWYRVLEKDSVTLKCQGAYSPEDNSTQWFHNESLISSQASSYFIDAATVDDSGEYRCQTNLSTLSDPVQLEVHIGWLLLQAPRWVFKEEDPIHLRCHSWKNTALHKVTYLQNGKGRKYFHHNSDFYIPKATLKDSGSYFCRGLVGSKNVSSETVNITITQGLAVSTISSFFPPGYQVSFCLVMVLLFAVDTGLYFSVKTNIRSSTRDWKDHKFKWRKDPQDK
T5 sequence (P08637 17-254): as the sequence (P08637 17-254 F176V limits assumed) above, with V160F counted along it

- binding result [1]: binds
- MFI [2]: 1170 MFI
- MFI [3]: 15.1 MFI
- MFI [4]: 91.7 MFI
- MFI [5]: 29.4 MFI
- MFI [6]: 40.5 MFI
- MFI [7]: 19 MFI
B1: hu333-4A2-IgG1wt (antibody)
heavy: not shown
VL: DIQMTQSPSSLSASVGDRVTITCKASQDVGIVVAWYQQKPGKAPKLLIYWASIRHTGVPSRFSGSGSGTEFTLTISSLQPDDFATYYCQQYSNYPLYTFGQGTKVEIK
notes: light chain constant region (kappa) not tied to an entry for this form

- binding result [8]: no binding (tested: 1 µg/ml)
- IC50 [9]: 0.103 µg/mL
- Max inhibition [9]: 100%
- MFI [2]: 4.78 MFI
- MFI [3]: 3.64 MFI
- MFI [4]: 4.14 MFI
- MFI [5]: 5.42 MFI
- MFI [6]: 6.16 MFI
- MFI [7]: 4.49 MFI
- EC50 (read off the curve) [10]: ~0.04 µg/mL
- EC50 [11]: 0.092 µg/mL
- Top MFI [11]: 1390 MFI
B2: hu333-4B2-IgG1mc (antibody)
heavy: EVQLVESGGGLVQPGGSLRLSCAVSGFSLTSYGVHWVRQAPGKGLEWVAVIWAGGSTNYADSVKGRFTISKDTSKNTVYLQMNSLRAEDTAVYYCAKPYGTSAMDYWGQGTLVTVSSASTKGPSVFPLAPSSKSTSGGTAALGCLVKDYFPEPVTVSWNSGALTSGVHTFPAVLQSSGLYSLSSVVTVPSSSLGTQTYICNVNHKPSNTKVDKKVEPKSCDKTHTCPPCPAPPAAAPSVFLFPPKPKDTLMISRTPEVTCVVVDVSHEDPEVKFNWYVDGVEVHNAKTKPREEQYNSTYRVVSVLTVLHQDWLNGKEYKCKVSNKALAAPIEKTISKAKGQPREPQVYTLPPSRDELTKNQVSLTCLVKGFYPSDIAVEWESNGQPENNYKTTPPVLDSDGSFFLYSKLTVDKSRWQQGNVFSCSVMHEALHNHYTQKSLSLSPGK
light: DIQMTQSPSSLSASVGDRVTITCKASQDVGIVVAWYQQKPGKAPKLLIYWASIRHTGVPSRFSGSGSGTEFTLTISSLQPDDFATYYCQQYSNYPLYTFGQGTKVEIKRTVAAPSVFIFPPSDEQLKSGTASVVCLLNNFYPREAKVQWKVDNALQSGNSQESVTEQDSKDSTYSLSSTLTLSKADYEKHKVYACEVTHQGLSSPVTKSFNRGEC
- binding result [1]: no binding (tested: about 20 µg/ml (coating concentration))

- binding result [8]: no binding (tested: 1 µg/ml)
- IC50 [9]: 0.118 µg/mL
- Max inhibition [9]: 100%
- MFI [2]: 4.56 MFI
- MFI [3]: 3.99 MFI
- MFI [4]: 3.91 MFI
- MFI [5]: 5.09 MFI
- MFI [6]: 6.12 MFI
- MFI [7]: 3.73 MFI
- EC50 (read off the curve) [10]: ~0.04 µg/mL
- EC50 [11]: 0.102 µg/mL
- Top MFI [11]: 1340 MFI
B3: hu333-4B2-IgG1mf (antibody)
heavy: B2 heavy with A236G
light: B2 light
- binding result [1]: no binding (tested: about 20 µg/ml (coating concentration))

- binding result [8]: no binding (tested: 1 µg/ml)
- IC50 [9]: 0.078 µg/mL
- Max inhibition [9]: 100%
- MFI [2]: 4.29 MFI
- MFI [3]: 3.8 MFI
- MFI [4]: 3.87 MFI
- MFI [5]: 5.2 MFI
- MFI [6]: 5.78 MFI
- MFI [7]: 3.71 MFI
- EC50 (read off the curve) [10]: ~0.04 µg/mL
- EC50 [11]: 0.098 µg/mL
- Top MFI [11]: 1360 MFI
B4: hu333-4A2-IgG1mc (antibody)
heavy: B2 heavy with A60V, T73N, S74A
light: B2 light
- binding result [1]: no binding (tested: about 20 µg/ml (coating concentration))
